Data as given in the supplement of paper PMC9112550, “Optimization of the antimicrobial peptide Bac7 by deep mutational scanning” (BMC Biology, 2022).

Tested on: Escherichia coli TOP10
Test: shrunken log2 fold change of peptide-encoding DNA abundance (4.5 h post-induction vs induction); higher = less antimicrobial activity (less host growth inhibition)
Settings: time post-induction: 4.5 h; library: site-saturation at positions 5, 18, 19, 20
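Further: peptides expressed intracellularly from a pBAD plasmid library in pooled LB shake-flask culture, induced with 0.3% L-arabinose, DNA abundance read by NGS, three biological replicates, DESeq2 with apeglm shrinkage.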

| Sequence | shrunken log2 fold change |
| --- | --- |
| RRIRGRPPRLPRPRPRPVSLPRP | 0.321 |
| RRIRTRPPRLPRPRPRPFLRPRP | -0.0935 |
| RRIRDRPPRLPRPRPRPRTKPRP | 0.16 |
| RRIRIRPPRLPRPRPRPPIAPRP | -0.109 |
| RRIRQRPPRLPRPRPRPVEDPRP | -0.0933 |
| RRIRIRPPRLPRPRPRPFWQPRP | -0.31 |
| RRIRERPPRLPRPRPRPMVEPRP | -0.0932 |
| RRIRVRPPRLPRPRPRPRGIPRP | 0.235 |
| RRIRVRPPRLPRPRPRPSRIPRP | 0.0876 |
| RRIRQRPPRLPRPRPRPVSTPRP | -0.0279 |
| RRIRLRPPRLPRPRPRPRENPRP | 0.345 |
| RRIRTRPPRLPRPRPRPVCYPRP | -0.531 |
| RRIRGRPPRLPRPRPRPNCPPRP | -0.161 |
| RRIRHRPPRLPRPRPRPECLPRP | -0.00297 |
| RRIRQRPPRLPRPRPRPKSPPRP | -0.089 |
| RRIRIRPPRLPRPRPRPNRIPRP | -0.481 |
| RRIRWRPPRLPRPRPRPNGIPRP | 0.0301 |
| RRIRYRPPRLPRPRPRPNWAPRP | -0.267 |
| RRIRVRPPRLPRPRPRPYHCPRP | -0.157 |
| RRIRNRPPRLPRPRPRPDRCPRP | -0.0122 |
| RRIRRRPPRLPRPRPRPEFKPRP | 0.0599 |
| RRIRTRPPRLPRPRPRPDCKPRP | -0.126 |
| RRIRSRPPRLPRPRPRPIANPRP | -0.0897 |
| RRIRRRPPRLPRPRPRPMVKPRP | 0.0693 |
| RRIRDRPPRLPRPRPRPGTCPRP | -0.0724 |

| Sequence | shrunken log2 fold change |
| --- | --- |
| RRIRIRPPRLPRPRPRPAYEPRP | -0.277 |
| RRIRWRPPRLPRPRPRPNTWPRP | 0.245 |
| RRIRDRPPRLPRPRPRPPQCPRP | 0.243 |
| RRIRSRPPRLPRPRPRPMSWPRP | 0.0314 |
| RRIRCRPPRLPRPRPRPMSPPRP | -0.0415 |
| RRIRLRPPRLPRPRPRPCSVPRP | -0.0962 |
| RRIRFRPPRLPRPRPRPFCEPRP | -0.124 |
| RRIRRRPPRLPRPRPRPMHQPRP | -0.105 |
| RRIRERPPRLPRPRPRPCRCPRP | 0.00968 |
| RRIRHRPPRLPRPRPRPGTIPRP | -0.00536 |
| RRIRCRPPRLPRPRPRPVDSPRP | 0.176 |
| RRIRNRPPRLPRPRPRPNGKPRP | -0.16 |
| RRIRRRPPRLPRPRPRPPWSPRP | 0.421 |
| RRIRPRPPRLPRPRPRPPHFPRP | 0.646 |
| RRIRTRPPRLPRPRPRPFYFPRP | -0.57 |
| RRIRCRPPRLPRPRPRPIQYPRP | -0.308 |
| RRIRIRPPRLPRPRPRPIPAPRP | -0.0353 |
| RRIRSRPPRLPRPRPRPYCKPRP | -0.327 |
| RRIRTRPPRLPRPRPRPFNYPRP | -0.269 |
| RRIRERPPRLPRPRPRPQGDPRP | -0.0405 |
| RRIRDRPPRLPRPRPRPNEYPRP | 0.0406 |
| RRIRTRPPRLPRPRPRPQVDPRP | -0.0209 |
| RRIRWRPPRLPRPRPRPQWEPRP | -0.0152 |
| RRIRVRPPRLPRPRPRPENHPRP | -0.187 |
| RRIRRRPPRLPRPRPRPLMQPRP | 0.396 |

| Sequence | shrunken log2 fold change |
| --- | --- |
| RRIRNRPPRLPRPRPRPLWFPRP | 0.0185 |
| RRIRSRPPRLPRPRPRPNFVPRP | -0.0465 |
| RRIRTRPPRLPRPRPRPQLQPRP | -0.0711 |
| RRIRLRPPRLPRPRPRPRDVPRP | 0.176 |
| RRIRERPPRLPRPRPRPWWAPRP | -0.0718 |
| RRIRGRPPRLPRPRPRPRDMPRP | 0.339 |
| RRIRERPPRLPRPRPRPPGIPRP | -0.0106 |
| RRIRTRPPRLPRPRPRPLWFPRP | -0.489 |
| RRIRMRPPRLPRPRPRPEMCPRP | 3.01 |
| RRIRYRPPRLPRPRPRPKWGPRP | -0.297 |
| RRIRLRPPRLPRPRPRPNQTPRP | -0.0464 |
| RRIRTRPPRLPRPRPRPGDCPRP | -0.195 |
| RRIRYRPPRLPRPRPRPMCSPRP | -0.116 |
| RRIRLRPPRLPRPRPRPIIYPRP | -0.196 |
| RRIRWRPPRLPRPRPRPYPPPRP | -0.332 |
| RRIRPRPPRLPRPRPRPFIHPRP | -0.224 |
| RRIRMRPPRLPRPRPRPNDDPRP | 0.196 |
| RRIRTRPPRLPRPRPRPYIQPRP | -0.274 |
| RRIRWRPPRLPRPRPRPPVCPRP | 0.15 |
| RRIRLRPPRLPRPRPRPYLKPRP | -0.396 |
| RRIRFRPPRLPRPRPRPLMVPRP | -0.38 |
| RRIRPRPPRLPRPRPRPTILPRP | -0.104 |
| RRIRNRPPRLPRPRPRPKIIPRP | -0.118 |
| RRIRCRPPRLPRPRPRPREWPRP | -0.0656 |
| RRIRVRPPRLPRPRPRPQRAPRP | 0.348 |

| Sequence | shrunken log2 fold change |
| --- | --- |
| RRIRIRPPRLPRPRPRPTCFPRP | -0.249 |
| RRIRSRPPRLPRPRPRPEIFPRP | -0.432 |
| RRIRQRPPRLPRPRPRPVHLPRP | 0.00299 |
| RRIRCRPPRLPRPRPRPDNWPRP | 0.409 |
| RRIRMRPPRLPRPRPRPDGCPRP | 2.12 |
| RRIRGRPPRLPRPRPRPNFLPRP | -0.0918 |
| RRIRLRPPRLPRPRPRPGVIPRP | -0.298 |
| RRIRTRPPRLPRPRPRPRPIPRP | -0.138 |
| RRIRNRPPRLPRPRPRPVHTPRP | 0.0171 |
| RRIRTRPPRLPRPRPRPEPMPRP | 0.00621 |
| RRIRVRPPRLPRPRPRPDSTPRP | -0.0391 |
| RRIRYRPPRLPRPRPRPVVPPRP | -0.0502 |
| RRIRRRPPRLPRPRPRPQCSPRP | 0.109 |
| RRIRPRPPRLPRPRPRPILIPRP | -0.106 |
| RRIRMRPPRLPRPRPRPSGWPRP | 0.934 |
| RRIRLRPPRLPRPRPRPSDEPRP | -0.255 |
| RRIRWRPPRLPRPRPRPFPHPRP | 0.29 |
| RRIRDRPPRLPRPRPRPMNWPRP | 0.0175 |
| RRIRVRPPRLPRPRPRPHMRPRP | -0.0474 |
| RRIRSRPPRLPRPRPRPLEVPRP | -0.103 |
| RRIRWRPPRLPRPRPRPDKDPRP | -0.365 |
| RRIRRRPPRLPRPRPRPVFPPRP | 0.488 |
| RRIRERPPRLPRPRPRPHAHPRP | -0.0467 |
| RRIRMRPPRLPRPRPRPCPKPRP | -0.214 |
| RRIRIRPPRLPRPRPRPEIIPRP | -0.00386 |

| Sequence | shrunken log2 fold change |
| --- | --- |
| RRIRTRPPRLPRPRPRPAVLPRP | 0.153 |
| RRIRERPPRLPRPRPRPFQGPRP | 0.0891 |
| RRIRWRPPRLPRPRPRPTKNPRP | 0.159 |
| RRIRDRPPRLPRPRPRPYYVPRP | 0.0365 |
| RRIRQRPPRLPRPRPRPARVPRP | 0.109 |
| RRIRYRPPRLPRPRPRPISSPRP | -0.262 |
| RRIRRRPPRLPRPRPRPLARPRP | 0.153 |
| RRIRSRPPRLPRPRPRPGKKPRP | -0.0502 |
| RRIRMRPPRLPRPRPRPEPHPRP | 1.43 |
| RRIRARPPRLPRPRPRPVQIPRP | -0.0414 |
| RRIRCRPPRLPRPRPRPGLCPRP | 0.291 |
| RRIRPRPPRLPRPRPRPRKNPRP | 0.296 |
| RRIRLRPPRLPRPRPRPCWTPRP | -0.252 |
| RRIRSRPPRLPRPRPRPPQSPRP | 0.373 |
| RRIRCRPPRLPRPRPRPKGAPRP | 0.492 |
| RRIRERPPRLPRPRPRPENTPRP | -0.354 |
| RRIRARPPRLPRPRPRPGPWPRP | 0.193 |
| RRIRRRPPRLPRPRPRPHLTPRP | -0.132 |
| RRIRGRPPRLPRPRPRPTGDPRP | 0.782 |
| RRIRDRPPRLPRPRPRPKHMPRP | -0.192 |
| RRIRQRPPRLPRPRPRPIKRPRP | -0.354 |
| RRIRCRPPRLPRPRPRPRQKPRP | 0.466 |
| RRIRARPPRLPRPRPRPAMAPRP | 0.479 |
| RRIRTRPPRLPRPRPRPVWYPRP | -0.456 |
| RRIRNRPPRLPRPRPRPPPMPRP | 0.678 |

| Sequence | shrunken log2 fold change |
| --- | --- |
| RRIRIRPPRLPRPRPRPLKYPRP | -0.0551 |
| RRIRNRPPRLPRPRPRPWKKPRP | -0.0178 |
| RRIRLRPPRLPRPRPRPQTRPRP | 0.08 |
| RRIRNRPPRLPRPRPRPSSEPRP | -0.214 |
| RRIRLRPPRLPRPRPRPWLRPRP | -0.0452 |
| RRIRFRPPRLPRPRPRPHFGPRP | -0.197 |
| RRIRARPPRLPRPRPRPFLAPRP | -0.122 |
| RRIRERPPRLPRPRPRPYCGPRP | -0.109 |
| RRIRKRPPRLPRPRPRPSNRPRP | -0.00152 |
| RRIRARPPRLPRPRPRPRRRPRP | 0.888 |
| RRIRVRPPRLPRPRPRPCYSPRP | 0.00378 |
| RRIRVRPPRLPRPRPRPGVIPRP | 0.0193 |
| RRIRMRPPRLPRPRPRPTSQPRP | 0.393 |
| RRIRDRPPRLPRPRPRPFKFPRP | -0.122 |
| RRIRMRPPRLPRPRPRPGKHPRP | 4.3 |
| RRIRWRPPRLPRPRPRPGSMPRP | -0.0806 |
| RRIRERPPRLPRPRPRPNERPRP | -0.105 |
| RRIRHRPPRLPRPRPRPMFPPRP | -0.281 |
| RRIRIRPPRLPRPRPRPKTCPRP | 0.179 |
| RRIRHRPPRLPRPRPRPHQNPRP | -0.494 |
| RRIRYRPPRLPRPRPRPVYMPRP | -1.34 |
| RRIRNRPPRLPRPRPRPRTMPRP | 0.135 |
| RRIRKRPPRLPRPRPRPNWEPRP | 0.0515 |
| RRIRNRPPRLPRPRPRPNTHPRP | -0.584 |
| RRIRDRPPRLPRPRPRPTIEPRP | 0.324 |
